In patent publication US20170327598A1, “SINGLE DOMAIN ANTIBODIES DIRECTED AGAINST INTRACELLULAR ANTIGENS” (SINGH MOLECULAR MEDICINE, LLC, priority 2014, published 2017):
Where “and” joins values, the source holds several entries; their conditions need not be identical. Identical values can stand only once.

Columns and labels:
[1] = molecular target: T1, endogenous STAT3 (Homo sapiens, UniProt P40763); assay: Immunoprecipitation of endogenous STAT3 from MDA-MB-231 lysate, Western blot; format: binding; settings: FIG. 3
T1 construct: endogenous STAT3 immunoprecipitated with all sdAbs tested at varying amounts; endogenous in cells
T1 sequence (P40763 whole entry): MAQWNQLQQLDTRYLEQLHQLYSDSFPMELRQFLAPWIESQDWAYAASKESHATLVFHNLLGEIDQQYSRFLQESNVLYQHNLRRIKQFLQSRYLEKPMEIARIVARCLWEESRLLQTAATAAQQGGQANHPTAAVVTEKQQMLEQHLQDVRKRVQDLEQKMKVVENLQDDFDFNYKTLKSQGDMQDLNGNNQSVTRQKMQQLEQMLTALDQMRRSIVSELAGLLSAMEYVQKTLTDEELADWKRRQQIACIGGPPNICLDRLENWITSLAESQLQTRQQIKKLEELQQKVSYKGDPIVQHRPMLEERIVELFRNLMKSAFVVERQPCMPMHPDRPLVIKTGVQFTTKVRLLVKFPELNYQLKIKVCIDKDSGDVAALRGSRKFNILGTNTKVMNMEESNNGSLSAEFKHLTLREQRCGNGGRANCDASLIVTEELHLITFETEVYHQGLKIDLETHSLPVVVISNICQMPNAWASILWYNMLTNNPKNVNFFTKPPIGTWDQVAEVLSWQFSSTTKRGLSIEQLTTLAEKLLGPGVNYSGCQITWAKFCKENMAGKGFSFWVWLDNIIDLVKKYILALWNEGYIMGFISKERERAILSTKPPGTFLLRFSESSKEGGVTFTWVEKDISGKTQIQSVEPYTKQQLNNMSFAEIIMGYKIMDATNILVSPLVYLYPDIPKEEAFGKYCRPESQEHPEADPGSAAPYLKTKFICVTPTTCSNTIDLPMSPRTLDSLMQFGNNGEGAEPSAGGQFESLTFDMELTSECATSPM
Description: The specificity of STAT3 sdAbs was assayed in human breast cancer cells. […] The cells were then disrupted in freshly prepared ice-cold lysis buffer (20 mM HEPES, pH 7.9, 400 mM NaCl, 0.1% NP-40, 10% glycerol, 1 mM sodium vanadate, 1 mM sodium fluoride, 1 mM dithiothreitol, 1 mM phenylmethylsulfonyl fluoride, 10 μg/mL aprotinin, 10 μg/mL leupeptin) for 45 minutes on ice. Lysates were then centrifuged, the supernatant collected, and protein concentration was determined using a modified Lowry method (Bio Rad, Hercules, Calif.). Total protein (1 mg) was incubated with 1.5 mg of Dynabeads (Invitrogen) with sdAbs against STAT3, a positive control (STAT3, cat#SC-482, Santa Cruz Biotechnology, Dallas, Tex.), or negative control (STAT-1, cat#9172, Cell Signaling, Danvers, Mass.) for 1 hour at 4° C. Beads were then washed. Following the final wash, 60 μl of lysis buffer was added, and the resulting supernatant was subject to Western blot analysis. Briefly, samples were separated on 10% polyacrylamide gels and transferred to a nitrocellulose membrane. The membranes were blocked, then incubated with appropriate primary and secondary antibodies. Anti-STAT3 antibody, used as a positive control, was from Cell Signaling (Cat#4904, Danvers, Mass.). The chemiluminescence reaction was performed using the ECL system from Santa Cruz Biotechnology (Dallas, Tex.).

[2] = test system: MDA-MB-231 cells; assay: MTT proliferation assay, MDA-MB-231; format: cell-based, human
[3] = test system: PANC-1 cells; assay: MTT proliferation assay, PANC-1; format: cell-based, human; settings: for Mean Absorbance (570 nM) ± S.E.: single experiments 1-3
[4] = test system: STAT3 reporter, induction by interleukin-6; assay: STAT3 reporter GloResponse SIE-luc2P/HEK293 cell assay, IL-6 induction; format: cell-based;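 also: IL-6 added at 40 ng/mL (EC80) for roughly one day after pretreatment, luciferase luminescence read with Bio-Glo reagent, untreated +IL6 wells serve as control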
[5] = test system: GloResponse SIE-luc2P/HEK 293 cells; assay: BCA protein concentration of reporter cells run in parallel; format: cell-based
[6] = test system: rabbit anti-llama biotinylated antibody or his-probe (H-3) biotin labeled antibody; assay: ELISA with sdAbs coated, binding of secondary antibodies (Experiments 2 and 3)
Description: Two assays (Experiment 2 and 3) were performed to assess the binding of the secondary antibody to the sdAbs. A similar ELISA method was utilized except the sdAbs were directly coated onto the assay plate at a concentration of 1 μg/mL. Plates were incubated overnight at 2-8° C. After the incubation, plates were washed (3×) and blocked (3% BSA in PBS) for at least one hour at room temperature.
After removal of the blocking buffer and washing (3×), the secondary antibodies, either rabbit anti-llama biotinylated antibody or his-probe (H-3) biotin labeled antibody at was then added at a 1:5,000 dilution to each well and incubated with shaking for at least one hour at room temperature. Only the rabbit anti-llama biotinylated antibody was used in Experiment 2. Both antibodies were run in parallel in Experiment 3.
After the incubation with secondary antibody, the plates were again washed (3×) and HRP at a 1:50,000 dilution was added to each well. Plates were incubated with shaking for at least one hour at room temperature. One last wash (3×) was performed followed by the addition of TMB substrate and plates were incubated at room temperature. For the anti-llama biotinylated antibody stop solution was added to halt the colorimetric reaction at 10 minutes. The his-probe (H-3) biotin labeled antibody was allowed to incubate for 20 minutes prior to stopping. The absorbance at 450 nm was measured as before.

[7] = MDA-MB-231, 5 days of treatment, 0.5 μg/ml
[8] = MDA-MB-231, 5 days of treatment, 1.0 μg/ml
[9] = MDA-MB-231, 5 days of treatment, 10.0 μg/ml
[10] = MDA-MB-231, 5 days of treatment, 100.0 μg/ml
[11] = 24 Hour Treatment Prior to IL6 Induction, high conc.: VHH13 55.8 μg/mL, VHH14 84.3 μg/mL, BB1608 4.16 μM, VHH69 50.5 μg/mL
[12] = 24 Hour Treatment Prior to IL6 Induction, low conc.: VHH13, VHH14, VHH69 10 μg/mL, BB1608 2 μM
[13] = 48 Hour Treatment Prior to IL6 Induction, high conc.: VHH13 55.8 μg/mL, VHH14 84.3 μg/mL, BB1608 4.16 μM, VHH69 50.5 μg/mL
[14] = 48 Hour Treatment Prior to IL6 Induction, low conc.: VHH13, VHH14, VHH69 10 μg/mL, BB1608 2 μM

B1: H.VHH14: anti-STAT3 sdAb VHH14 (SEQ ID NO:4), presumably the form produced in mammalian cells (protein)
VHH: QVQLVESGGGSVQAGGSLRLSCVASTYTGCMGWFRQAPGKEREGVAALSSRGFAGHYTDSVKGRFSISRDYVKNAVYLQMNTVKPEDAAMYYCAAREGWECGETWLDRTAGGHTYWGQGTLVTVSS
modifications: Camelid
immunoprecipitation of endogenous STAT3 [1]: immunoprecipitated | % Inhibition ([2]; MDA-MB-231, 3 days of treatment, 1.0 μg/ml): 0.5% | % Inhibition [2, 7]: 9.5% | % Inhibition [2, 8]: 4.9% | % Inhibition [2, 9]: 18.2% | % Inhibition [2, 10]: 18.9% | Mean Absorbance (570 nM) ± S.E. ([2]; MDA-MB-231, Day 3, 0.5 μg/ml): 0.485 ± 0.040 | Mean Absorbance (570 nM) ± S.E. ([2]; MDA-MB-231, Day 3, 1.0 μg/ml): 0.402 ± 0.017 | Mean Absorbance (570 nM) ± S.E. ([2]; MDA-MB-231, Day 3, 10.0 μg/ml): 0.588 ± 0.020 | Mean Absorbance (570 nM) ± S.E. ([2]; MDA-MB-231, Day 3, 100 μg/ml): 0.416 ± 0.030 | Mean Absorbance (570 nM) ± S.E. ([2]; MDA-MB-231, Day 5, 0.5 μg/ml): 0.890 ± 0.021 | Mean Absorbance (570 nM) ± S.E. ([2]; MDA-MB-231, Day 5, 1.0 μg/ml): 0.935 ± 0.037 | Mean Absorbance (570 nM) ± S.E. ([2]; MDA-MB-231, Day 5, 10.0 μg/ml): 0.804 ± 0.015 | Mean Absorbance (570 nM) ± S.E. ([2]; MDA-MB-231, Day 5, 100 μg/ml): 0.797 ± 0.010 | Mean Absorbance (570 nM) ± S.E., Overall Mean ([3]; PANC-1, Day 3, 10.0 μg/ml): 1.089 ± 0.085 | Mean Absorbance (570 nM) ± S.E. ([3]; PANC-1, Day 3, 10.0 μg/ml): 0.920 ± 0.133 and 1.183 ± 0.114 and 1.163 ± 0.044 | Mean Absorbance (570 nM) ± S.E., Overall Mean ([3]; PANC-1, Day 3, 100 μg/ml): 0.906 ± 0.054 | Mean Absorbance (570 nM) ± S.E. ([3]; PANC-1, Day 3, 100 μg/ml): 0.808 ± 0.239 and 0.993 ± 0.088 and 0.916 ± 0.088 | Mean Absorbance (570 nM) ± S.E., Overall Mean ([3]; PANC-1, Day 5, 10.0 μg/ml): 1.368 ± 0.247 | Mean Absorbance (570 nM) ± S.E. ([3]; PANC-1, Day 5, 10.0 μg/ml): 1.859 ± 0.033 and 1.165 ± 0.015 and 1.081 ± 0.103 | Mean Absorbance (570 nM) ± S.E., Overall Mean ([3]; PANC-1, Day 5, 100 μg/ml): 0.754 ± 0.333

B2: Anti-STAT3 VHH14: second anti-STAT3 single domain antibody, SEQ ID NO:4 (protein)
VHH: QVQLVESGGGSVQAGGSLRLSCVASTYTGCMGWFRQAPGKEREGVAALSSRGFAGHYTDSVKGRFSISRDYVKNAVYLQMNTVKPEDAAMYYCAAREGWECGETWLDRTAGGHTYWGQGTLVTVSS
modifications: Camelid
immunoprecipitation of endogenous STAT3 [1]: immunoprecipitated | % Inhibition ([2]; MDA-MB-231, 3 days of treatment, 10.0 μg/ml): 23.1% | % Inhibition ([2]; MDA-MB-231, 3 days of treatment, 100.0 μg/ml): 57.0% | Overall Average % Inhibition ([2]; MDA-MB-231, 3 days, 10.0 μg/ml): 26.2% | Mean Growth Inhibition ([2]; MDA-MB-231, 3 days, 10.0 μg/ml, single experiments 1-4, listed as B.VHH14): 23.1% and 20.0% and 38.5% and 23.3% | Overall Average % Inhibition ([2]; MDA-MB-231, 3 days, 100 μg/ml): 55.7% | Mean Growth Inhibition ([2]; MDA-MB-231, 3 days, 100 μg/ml, single experiments 1-4, listed as B.VHH14): 57.0% and 42.8% and 62.3% and 60.6% | % Inhibition [2, 7]: 0% | % Inhibition [2, 8]: 0% | % Inhibition [2, 9]: 5.5% | % Inhibition [2, 10]: 18.9% | Overall Average % Inhibition ([2]; MDA-MB-231, 5 days, 10.0 μg/ml): 14.9% | Overall Average % Inhibition ([2]; MDA-MB-231, 5 days, 100 μg/ml): 38.6% | Mean Absorbance (570 nM) ± S.E. ([2]; MDA-MB-231, Day 3, 0.5 μg/ml): 0.666 ± 0.022 | Mean Absorbance (570 nM) ± S.E. ([2]; MDA-MB-231, Day 3, 1.0 μg/ml): 0.644 ± 0.045 | Mean Absorbance (570 nM) ± S.E. ([2]; MDA-MB-231, Day 3, 10.0 μg/ml): 0.456 ± 0.048 | Mean Absorbance (570 nM) ± S.E. ([2]; MDA-MB-231, Day 3, 100 μg/ml): 0.255 ± 0.005 | Mean Absorbance (570 nM) ± S.E. ([2]; MDA-MB-231, Day 5, 0.5 μg/ml): 0.733 ± 0.038 | Mean Absorbance (570 nM) ± S.E. ([2]; MDA-MB-231, Day 5, 1.0 μg/ml): 0.794 ± 0.023 | Mean Absorbance (570 nM) ± S.E. ([2]; MDA-MB-231, Day 5, 10.0 μg/ml): 0.640 ± 0.011 | Mean Absorbance (570 nM) ± S.E. ([2]; MDA-MB-231, Day 5, 100 μg/ml): 0.549 ± 0.023 | Mean Absorbance (570 nM) ± S.E., Overall Mean ([2]; Table 6, MDA-MB-231, Day 3, 10.0 μg/ml): 0.504 ± 0.021 | Mean Absorbance (570 nM) ± S.E. ([2]; Table 6, MDA-MB-231, Day 3, 10.0 μg/ml, single experiments 1-4, listed as B.VHH14): 0.456 ± 0.048 and 0.499 ± 0.018 and 0.502 ± 0.048 and 0.559 ± 0.041 | Mean Absorbance (570 nM) ± S.E., Overall Mean ([2]; Table 6, MDA-MB-231, Day 3, 100 μg/ml): 0.302 ± 0.043 | Mean Absorbance (570 nM) ± S.E. ([2]; Table 6, MDA-MB-231, Day 3, 100 μg/ml, single experiments 1-4, listed as B.VHH14): 0.255 ± 0.005 and 0.357 ± 0.019 and 0.308 ± 0.021 and 0.287 ± 0.021 | Mean Absorbance (570 nM) ± S.E., Overall Mean ([2]; Table 7, MDA-MB-231, Day 5, 10.0 μg/ml): 0.688 ± 0.131 | Mean Absorbance (570 nM) ± S.E., Overall Mean ([2]; Table 7, MDA-MB-231, Day 5, 100 μg/ml): 0.475 ± 0.0690 | Average RLU [4, 11]: 496624 RLU | Average RLU with Media Blank [4, 11]: 496598 RLU | Luminescence (RLU), single wells [4, 11]: 465649 RLU and 520343 RLU and 503880 RLU | Average RLU [4, 12]: 214828 RLU | Average RLU with Media Blank [4, 12]: 214803 RLU | Luminescence (RLU), single wells [4, 12]: 218125 RLU and 203210 RLU and 223150 RLU | Average RLU [4, 13]: 480595 RLU | Average RLU with Media Blank [4, 13]: 480562 RLU | Luminescence (RLU), single wells [4, 13]: 494706 RLU and 488307 RLU and 458771 RLU | Average RLU [4, 14]: 232537 RLU | Average RLU with Media Blank [4, 14]: 232504 RLU | Luminescence (RLU), single wells [4, 14]: 241785 RLU and 236843 RLU and 218982 RLU | effect on IL-6 induction of STAT3 reporter ([4]; 24 hours and 48 hours treatment prior to IL-6): enhancement of the IL-6 induction | Protein concentration [5, 11]: 270 | Protein concentration [5, 12]: 189 | Protein concentration [5, 13]: 229 | Protein concentration [5, 14]: 216 | OD450 Values ([6]; His-probe (H-3), Experiment 3, stored 1:100 dilution of sdAb): 3.416 | OD450 Values ([6]; Rabbit anti-Llama Secondary Antibody, Experiment 2, sdAb coated at 1 μg/mL): 2.813 | OD450 Values ([6]; Rabbit anti-Llama Secondary Antibody, Experiment 3, stored 1:100 dilution of sdAb): 2.439
